Results from the supplement of paper PMC11246515.
± gives the standard deviation of the averaged measurements.

Experiment: total protein half-life in vivo (active degradation + dilution); higher = more stable protein
[1] = E. coli NCM3722 delta-clpP, growth: N-lim chemostat, doubling time 6 h
[2] = E. coli NCM3722 delta-hslV, growth: N-lim chemostat, doubling time 6 h
[3] = E. coli NCM3722 delta-lon, growth: N-lim chemostat, doubling time 6 h
[4] = E. coli NCM3722 delta-smpB, growth: N-lim chemostat, doubling time 6 h
[5] = wild type E. coli NCM3722, growth: N-lim chemostat, doubling time 6 h
[6] = wild type E. coli NCM3722, growth: P-lim chemostat, doubling time 12 h
[7] = E. coli NCM3722 delta-clpP delta-lon delta-hslV, growth: N-lim chemostat, doubling time 6 h
[8] = wild type E. coli NCM3722, growth: C-lim chemostat, doubling time 3 h
[9] = wild type E. coli NCM3722, growth: C-lim chemostat, doubling time 6 h
[10] = wild type E. coli NCM3722, growth: C-lim chemostat, doubling time 12 h
[11] = wild type E. coli NCM3722, growth: N-lim chemostat, doubling time 12 h
[12] = wild type E. coli NCM3722, growth: P-lim chemostat, doubling time 6 h

MLMLFLTVAMVHIVALMSPGPDFFFVSQTAVSRSRKEAMMGVLGITCGVMVWAGIALLGLHLIIEKMAWLHTLIMVGGGLYLCWMGYQMLRGALKKEAVSAPAPQVELAKSGRSFLKGLLTNLANPKAIIYFGSVFSLFVGDNVGTTARWGIFALIIVETLAWFTVVASLFALPQMRRGYQRLAKWIDGFAGALFAGFGIHLIISR [P0AG38]
total protein half-life in vivo [1]: 1.14 h
total protein half-life in vivo [2]: 0.979 h
total protein half-life in vivo [3]: 0.822 h
total protein half-life in vivo [4]: 1.13 ± 0.1 h
total protein half-life in vivo [5]: 1.13 h
total protein half-life in vivo [6]: 2.22 ± 0.65 h

MLNAWHLPVPPFVKQSKDQLLITLWLTGEDPPQRIMLRTEHDNEEMSVPMHKQRSQPQPGVTAWRAAIDLSSGQPRRRYSFKLLWHDRQRWFTPQGFSRMPPARLEQFAVDVPDIGPQWAADQIFYQIFPDRFARSLPREAEQDHVYYHHAAGQEIILRDWDEPVTAQAGGSTFYGGDLDGISEKLPYLKKLGVTALYLNPVFKAPSVHKYDTEDYRHVDPQFGGDGALLRLRHNTQQLGMRLVLDGVFNHSGDSHAWFDRHNRGTGGACHNPESPWRDWYSFSDDGTALDWLGYASLPKLDYQSESLVNEIYRGEDSIVRHWLKAPWNMDGWRLDVVHMLGEAGGARNNMQHVAGITEAAKETQPEAYIVGEHFGDARQWLQADVEDAAMNYRGFTFPLWGFLANTDISYDPQQIDAQTCMAWMDNYRAGLSHQQQLRMFNQLDSHDTARFKTLLGRDIARLPLAVVWLFTWPGVPCIYYGDEVGLDGKNDPFCRKPFPWQVEKQDTALFALYQRMIALRKKSQALRHGGCQVLYAEDNVVVFVRVLNQQRVLVAINRGEACEVVLPASPFLNAVQWQCKEGHGQLTDGILALPAISATVWMN
total protein half-life in vivo [7]: 6.31 ± 0.59 h
total protein half-life in vivo [1]: 6.88 ± 1.2 h
total protein half-life in vivo [2]: 2.49 ± 0.11 h
total protein half-life in vivo [3]: 2.59 ± 0.38 h
total protein half-life in vivo [4]: 2.28 ± 0.031 h
total protein half-life in vivo [8]: 2.48 ± 0.074 h
total protein half-life in vivo [9]: 3.86 ± 0.075 h
total protein half-life in vivo [10]: 6.87 ± 1.4 h
total protein half-life in vivo [5]: 2.18 h
total protein half-life in vivo [11]: 3.45 ± 0.98 h
total protein half-life in vivo [12]: 5 ± 0.27 h
total protein half-life in vivo [6]: 7.49 ± 0.34 h

MLNERQLKIVDLLEQQPRTPGELAQQTGVSGRTILRDIDYLNFTLNGKARIFASGSAGYQLEIFERRSFFQLLQKHDNDDRLLALLLLNTFTPRAQLASALNLPETWVAERLPRLKQRYERTCCLASRPGLGHFIDETEEKRVILLANLLRKDPFLIPLAGITRDNLQHLSTACDNQHRWPLMQGDYLSSLILAIYALRNQLTDEWPQYPGDEIKQIVEHSGLFLGDNAVRTLTGLIEKQHQQAQVISADNVQGLLQRVPGIASLNIIDAQLVENITGHLLRCLAAPVWIAEHRQSSMNNLKAAWPAAFDMSLHFITLLREQLDIPLFDSDLIGLYFACALERHQNERQPIILLSDQNAIATINQLAIERDVLNCRVIIARSLSELVAIREEIEPLLIINNSHYLLDDAVNNYITVKNIITAAGIEQIKHFLATAFIRQQPERFFSAPGSFHYSNVRGESWQHITRQICAQLVAQHHITADEAQRIIAREGEGENLIVNRLAIPHCWSEQERRFRGFFITLAQPVEVNNEVINHVLIACAAADARHELKIFSYLASILCQHPAEIIAGLTGYEAFMELLHKG
total protein half-life in vivo [7]: 6.57 h

MLNIVLYEPEIPPNTGNIIRLCANTGFRLHIIEPMGFAWDDKRLRRAGLDYHEFTAVTRHHDYRAFLEAENPQRLFALTTKGTPAHSAVSYQDGDYLMFGPETRGLPASILDALPAEQKIRIPMVPDSRSMNLSNAVSVVVYEAWRQLGYPGAVLRD [P0AGJ7]
total protein half-life in vivo [7]: 5.27 ± 0.13 h
total protein half-life in vivo [2]: 5.83 ± 0.49 h
total protein half-life in vivo [3]: 5.54 ± 0.16 h
total protein half-life in vivo [4]: 4.82 ± 0.33 h
total protein half-life in vivo [8]: 2.91 ± 0.35 h
total protein half-life in vivo [9]: 6.26 h
total protein half-life in vivo [10]: 13.8 ± 2.8 h
total protein half-life in vivo [5]: 5.23 h
total protein half-life in vivo [11]: 8.21 ± 0.38 h
total protein half-life in vivo [12]: 5.93 ± 0.22 h
total protein half-life in vivo [6]: 11.9 ± 0.24 h

MLNKLSLLLKDAGISLTDHQKNQLIAYVNMLHKWNKAYNLTSVRDPNEMLVRHILDSIVVAPYLQGERFIDVGTGPGLPGIPLSIVRPEAHFTLLDSLGKRVRFLRQVQHELKLENIEPVQSRVEEFPSEPPFDGVISRAFASLNDMVSWCHHLPGEQGRFYALKGQMPEDEIALLPEEYQVESVVKLQVPALDGERHLVVIKANKI [P0A6U5]
total protein half-life in vivo [7]: 5.85 ± 1.7 h
total protein half-life in vivo [1]: 4.636 ± 0.041 h
total protein half-life in vivo [3]: 5.33 ± 0.68 h
total protein half-life in vivo [4]: 4.48 ± 0.18 h
total protein half-life in vivo [8]: 3.51 ± 0.68 h
total protein half-life in vivo [10]: 10.5 ± 1.6 h
total protein half-life in vivo [5]: 5.09 ± 0.33 h
total protein half-life in vivo [11]: 8.45 ± 0.31 h
total protein half-life in vivo [12]: 5.87 ± 0.69 h
total protein half-life in vivo [6]: 13.1 ± 2 h

MLNLFVGLDIYTGLLLLLALAFVLFYEAINGFHDTANAVAAVIYTRAMQPQLAVVMAAFFNFFGVLLGGLSVAYAIVHMLPTDLLLNMGSTHGLAMVFSMLLAAIIWNLGTWFFGLPASSSHTLIGAIIGIGLTNALLTGSSVMDALNLREVTKIFSSLIVSPIVGLVIAGGLIFLLRRYWSGTKKRDRIHRIPEDRKKKKGKRKPPFWTRIALIVSAAGVAFSHGANDGQKGIGLVMLVLVGIAPAGFVVNMNASGYEITRTRDAVTNFEHYLQQHPELPQKLIAMEPPLPAASTDGTQVTEFHCHPANTFDAIARVKTMLPGNMESYEPLSVSQRSQLRRIMLCISDTSAKLAKLPGVSKEDQNLLKKLRSDMLSTIEYAPVWIIMAVALALGIGTMIGWRRVAMTIGEKIGKRGMTYAQGMAAQMTAAVSIGLASYIGMPVSTTHVLSSAVAGTMVVDGGGLQRKTVTSILMAWVFTLPAAIFLSGGLYWIALQLI
total protein half-life in vivo [7]: 6.37 h
total protein half-life in vivo [1]: 5.68 h
total protein half-life in vivo [4]: 5.61 ± 0.43 h
total protein half-life in vivo [5]: 6.47 h
total protein half-life in vivo [12]: 6.03 ± 0.27 h
total protein half-life in vivo [6]: 13.1 h

MLNRYPLWKYVMLIVVIVIGLLYALPNLFGEDPAVQITGARGVAASEQTLIQVQKTLQEEKITAKSVALEEGAILARFDSTDTQLRAREALMGVMGDKYVVALNLAPATPRWLAAIHAEPMKLGLDLRGGVHFLMEVDMDTALGKLQEQNIDSLRSDLREKGIPYTTVRKENNYGLSITFRDAKARDEAIAYLSKRHPDLVISSQGSNQLRAVMSDARLSEAREYAVQQNINILRNRVNQLGVAEPVVQRQGADRIVVELPGIQDTARAKEILGATATLEFRLVNTNVDQAAAASGRVPGDSEVKQTREGQPVVLYKRVILTGDHITDSTSSQDEYNQPQVNISLDSAGGNIMSNFTKDNIGKPMATLFVEYKDSGKKDANGRAVLVKQEEVINIANIQSRLGNSFRITGINNPNEARQLSLLLRAGALIAPIQIVEERTIGPTLGMQNIEQGLEACLAGLLVSILFMIIFYKKFGLIATSALIANLILIVGIMSLLPGATLSMPGIAGIVLTLAVAVDANVLINERIKEELSNGRTVQQAIDEGYRGAFSSIFDANITTLIKVIILYAVGTGAIKGFAITTGIGVATSMFTAIVGTRAIVNLLYGGKRVKKLSI [P0AG90]
total protein half-life in vivo [7]: 7.05 ± 0.45 h
total protein half-life in vivo [1]: 6.58 ± 0.21 h
total protein half-life in vivo [2]: 6.5 ± 0.39 h
total protein half-life in vivo [3]: 6.33 ± 0.36 h
total protein half-life in vivo [4]: 5.92 ± 0.46 h
total protein half-life in vivo [8]: 3.51 ± 0.36 h
total protein half-life in vivo [9]: 5.86 ± 0.32 h
total protein half-life in vivo [10]: 12.6 ± 2 h
total protein half-life in vivo [5]: 6.19 ± 0.036 h
total protein half-life in vivo [11]: 12.1 ± 0.19 h
total protein half-life in vivo [12]: 6.36 ± 0.41 h
total protein half-life in vivo [6]: 12.2 ± 0.8 h
